Test results as given in IntAct's records for PubMed 20185822.

B1: Autoimmune regulator (Homo sapiens), O43918 (parent)
chain: MATDAALRRLLRLHRTEIAVAVDSAFPLLHALADHDVVPEDKFQETLHLKEKEGCPQAFHALLSWLLTQDSTAILDFWRVLFKDYNLERYGRLQPILDSFPKDVDLSQPRKGRKPPAVPKALVPPPRLPTKRKASEEARAAAPAALTPRGTASPGSQLKAKPPKKPESSAEQQRLPLGNGIQTMSASVQRAVAMSSGDVPGARGAVEGILIQQVFESGGSKKCIQVGGEFYTPSKFEDSGSGKNKARSSSGPKPLVRAKGAQGAAPGGGEARLGQQGSVPAPLALPSDPQLHQKNEDECAVCRDGGELICCDGCPRAFHLACLSPPLREIPSGTWRCSSCLQATVQEVQPRAEEPRPQEPPVETPLPPGLRSAGEEVRGPPGEPLAGMDTTLVYKHLPAPPSAAPLPGLDSSALHPLLCVGPEGQQNLAPGARCGVCGDGTDVLRCTHCAAAFHWRCHFPAGTSRPGTGLRCRSCSGDVTPAPVEGVLAPSPARLAPGPAKDDTASHEPALHRDDLESLLSEHTFDGILQWAIQSMARPAAPFPS

Variants of: B1
Settings: with daxx_human DAXX

effect of a mutation on the interaction | Variant
decreasing interaction | W78R
